The text below walks through data of the DeepSol protein solubility set.

This series in a line: soluble on expression in E. coli; label from the status in PepcDB or PDB records.
Take “GMSDDLTDAQTAAIPEGFSQLNWSRGFGRQIGPLFEHREGPGQARLAFRVEEHHTNGLGNCHGGMLMSFADMAWGRIISLQKSYSWVTVRLMCDFLSGAKLGDWVEGEGELISEEDMLFTVRGRIWAGERTLITGTGVFKALSARKPRPGELAYKEEA”: the “soluble on expression in E. coli” value is reported as “soluble”. For the sequence “MSLSNTPIELKGSSFTLSVVHLHEAEPEVIRQALEDKIAQAPAFLKHAPVVINVSGLESPVNWPELHKIVTSTGLRIIGVSGCKDASLKVEIDRMGLPLLTEGKEKAVRPAPVEPATPSEPPQNANPITKTRLIDVPVRSGQRIYAPQCDLIVTSHVSAGAELIADGNIHVYGMMRGRALAGASGDREAQIFCTHLTAELVSIAGVYWLSDKIPAEFYGKAARLRLADNALTVQPLNEGHHHHHH”, the “soluble on expression in E. coli” value is listed as “soluble”. As for “MLTLKNDYLTVKINPLGAELTSVVDNETQLEYMWQADKAYWGRHAPILFPIVGRLQDNQYRLGERTYHMTQHGFARDREFTVIDQTPTQVTLELTADDQSRALFPADFTLTVTFELIDHQLRFSADVFNPATTTLPFSIGAHPGFNVPLGDALADFTDYQVTVSPKKTYQRVPLVGPYSDSQHTEPLDLTQPLGLDHGLFAHDAQVLTLDSETTVMLSTPTNDHGVALTTTAPYLGIWSPYPKQAPFVCLEPWWGLADDVQATGELTTKVAIHHLAAQQHFQAAYQVTYFLEHHHHHH”, the “soluble on expression in E. coli” value was “not soluble”.

As to “MSAIKVFILSDSIGETAHNVALAAAAQFSDYDIRYQRFPFVRTDSLLQTVLSQALKEHAAIFHTFVDRRLSQIVNQFCEAHELPYYDVITPALDTFSQITHVQPSNHPGTVHALNTNYFDRINAIEFAVTYDDGKNPSGFLEADVVLLGVSRTSKTPLSLYLANRNLKVANLPLVPQAQIPDEIWKVDPKKIFGLTNDPEKLNDIRRQRMVQYGLNPDTMYSNTDKIKAELEYADKIFKKIGCLVINVANKSIEETATLITESLNTDDTNNGLEHHHHHH”, the “soluble on expression in E. coli” value is recorded as “soluble”.

For the sequence “MGSDKIHHHHHHMKHGGYPWKNGKPALDVKDFSVNLNPMGVPKFIEELINEAVKLKVYAYYPPQNLREIKGIIAEIYGVNEDLVGVFNGASEVISILDENFTVPQPNYSEYKFHSYYFAEEHEDEFVFELNPGRILTSNPNNPTGSLIKLDEIEEFLINEKNELILDESFIDISLAESATKLVNEFNNLTIINSFTKSLAIPGLRFGFSIGHKSKELEKRVPIWRINSITYYVISNLNPKEVRSFFVNSKIKVKEIYDKVDGVKKLFKMYKSYAPFFLVEFKIPTSLINDELIRRCKCYIRDASNFLGLRNTHARIALKNEVIELINNINEIISEKES”, the “soluble on expression in E. coli” value is given as “not soluble”.

As to “MSLTNLLQKIGDAVTVVNFSLYEGFIFDMDGTLLDTMPAHLAAWEATAKHFDFPFDAQWLYGLGGMPSAKITTHINKKLGLALDPDRVAAYKMDWFASMGLQAEVIPATYELLCQWQGKKKMAIGTGSQRDSALRLLSNAQVLDKFDAVVTASDVQQHKPHPETFLMACEQLGLTPKQCLVFEDTQLGLQAAHAGGMDCMLVTEQGLVFYPFAHEGHHHHHH”, the “soluble on expression in E. coli” value is listed as “soluble”. Under “GAMSCIKGNVDLVFLFDGSMSLQPDEFQKILDFMKDVMKKLSNTSYQFAAVQFSTSYKTEFDFSDYVKRKDPDALLKHVKHMLLLTNTFGAINYVATEVFREELGARPDATKVLIIITDGEATDSGNIDAAKDIIRYIIGIGKHFQTKESQETLHKFASKPASEFVKILDTFEKLKDLFTELQKKIYVIEG” stands “soluble”; under “MGSDKIHHHHHHMMVEESLQLQNELLNKLVQGGGLKELVDSAAHFVQREVVIANTSNRVLESTFSEGFSQGEFFAVLPLQPPVPGRVQLQAGEKKAEALVVELSHDAKRLGFLFICDPGADEDNRLKVLIHQARNVFVLELQKKAELLENSRNYQDAFLFDLLYGNIEDNADIIARGKLWGWDLSLPHVVTAFELEDYESYSQDHYLVTTLHDIIQSVAQSLDKTVILMEKNEEVVLALPVEARKRRDFKAYLNMIINQVLAQAEERLAPRVIRVGVGRRYEQPSELFRSYQEAKVAVKLSALLKDKGPIVYFRELGVERILYSHDKQELLEFYREILAELEAQDKQKNELIETLENYLVYHCDLKATADALFLHPNSLRYRLKRIEEILDLDLEDFDTRVSLVIAFKIKHLIHSKERL”, “not soluble”.
